In PMC1618392, “The crystal structure of superoxide dismutase from Plasmodium falciparum” (BMC Structural Biology, 2006):

Target: the molecule itself
Test: AUC; sedimentation equilibrium, Beckman Optima XL/I, AN-50Ti rotor; 300 mM NaCl, 50 mM Tris-HCl, pH 7.5

B1: Plasmodium falciparum cytosolic iron superoxide dismutase (enzyme, Plasmodium falciparum (3D7), UniProt Q8IAY6 1-198, looked up)
chain: MVITLPKLKYALNALSPHISEETLNFHYNKHHAGYVNKLNTLIKDTPFAEKSLLDIVKESSGAIFNNAAQIWNHTFYWDSMGPDCGGEPHGEIKEKIQEDFGSFNNFKEQFSNILCGHFGSGWGWLALNNNNKLVILQTHDAGNPIKDNTGIPILTCDIWEHAYYIDYRNDRASYVKAWWNLVNWNFANENLKKAMQK
notes: cytosolic iron superoxide dismutase of Plasmodium falciparum (3D7), residues 1-198, amplified from genomic DNA; The calculated monomer mass is 23,799 Da; In the crystal Lys198 and the eight residues of the tag are not seen; also called PfFeSOD; PfSOD; source: E. coli BL21-CodonPlus, purified (Ni-NTA, Superdex 75 size exclusion)
stoichiometry N: 2
